Source: paper PMC12009303, “Structural characterization of antibody-responses following Zolgensma treatment for AAV capsid engineering to expand patient cohorts” (Nature Communications, 2025)

Molecular target: T1, AAV9 capsid (adeno-associated virus serotype 9, UniProt Q6JC40)
T1 construct: also called wtAAV9; AAV9 vector; copies: 60
Experiment: far-Western, overlay or dot blot; native dot immunoblot: native capsids adsorbed onto nitrocellulose; human mAbs at ~1 µg/ml in PBS with 6% milk, 0.1% Tween-20, 1 h; anti-human-HRP
Settings: both partners purified

| Binder | binding result |
| --- | --- |
| mAb3-6 (antibody, V domains shown) VH: EVQLVESGGGLVQPGGSLRLSCSASGFHFSSYEMNWVRQAPGKGLEWVSYISSSGTYIDYADSVKGRFTISRDNPANSLYLQMYSLRAEDTAVYYCARRLWFGELPYSYYYGMDVWGQGTTVTVSS VL: ALTQPASVSGSPGQSITISCTGTSSDIGGYNYVSWYQQHPGKAPELLIFDVSNRPSGVSNRFSGSKSGNTASLTISGLQAEDEADYHCCSYTRTSTVIFGGGTKLTVL | binds |
| mAb3-7 (antibody, V domains shown) VH: QVQLQESGPGLVKPSETLSLTCTVSGGSISNYYWNWIRQPPGKGLEWIGYVHYSGSTNYNPSLKSRVSVSVDTSKNQFSLNLGSVTAADTAVYYCARQSRSYYNEVITDPKYNFDYWGQGTLVTVSS VL: QSALTQPASVSGSPGQSITISCTGTSSDVGGYDYVSWYQQHPGKAPKLMIYDVSNRPSGVSNRFSGSKSGNTASLTISGLQAEDEADYYCSSYTSISTLVFGGGTKLTVL | binds |
